Broadly, the stoichiometry N is the number of molecules, sites or subunits per partner or assembly.

Test [1] has as its target human proteasome α7 subunit (human) (UniProt P25788). The experiment in a line: AUC; sedimentation velocity, α7 alone, 150 mM potassium phosphate pH 7.4, 25,000 rpm, c(s) analysis in SEDFIT.
Test [2] shares this target. The test is described as follows: native MS; α7 alone, 28 μM monomer, 10 mM ammonium acetate pH 6.8, nanoflow ESI under non-denaturing conditions.
The target is the same in test [3]. The test is described as follows: AUC; sedimentation velocity, mixture of α7 and α6 at 1:4 molar ratio (α7 tetradecamer to α6 monomer), 150 mM potassium phosphate pH 7.4, 25,000 rpm.
Test [4] has the same target. The test is described as follows: native MS; α7 (2 μM tetradecamer) mixed with α6 (0.5, 1, 2, 4 and 8 μM monomer) at pH 7.5, incubated at 20 °C for 1 h, nanoflow ESI under non-denaturing conditions.
For test [5], the target named is human proteasome α6 subunit, short isoform (human) (UniProt P25786). The test is described as follows: AUC; sedimentation velocity, α6 alone, 150 mM potassium phosphate pH 7.4, 55,000 rpm, c(s) analysis in SEDFIT.
Test [6] shares this target. The experiment in a line: native MS; α6 alone at 5, 10 and 20 μM monomer, 150 mM ammonium acetate pH 7.5, nanoflow ESI under non-denaturing conditions.

On to “human proteasome α7 subunit (from UniProt P25788 1-255) (natural protein)”, for which the stoichiometry N in test [1] was found to be 14; in test [2], 14; in test [3] it was 7; in test [4] it was 7.
For “human proteasome α6 subunit, short isoform (from UniProt P25786 1-263) (natural protein)”, the stoichiometry N in test [5] was 2; in test [6], 2; in test [3] it was 7 α7 per α6; in test [4] it was 7 α7 per α6.
